Where “and” joins values, the source holds several entries; their conditions need not be identical. Equal entries are not always repeated.
How the values were obtained:
FimH [1] = molecular target: FimH (Escherichia coli, UniProt P08191, P197R/T222H); assay: biochemical
Experimental: (§1) The biological activity of the FimCH drug substance (for example, from Example 3) is determined by an in vitro mannose binding assay. The FimH protein is a bacterial adhesin utilized by E. coli to bind mannose residues on glycosylated proteins. During urinary tract infections, the FimH adhesin binds mannosylated uroplakin proteins on bladder epithelial cells, which promotes the internalization of bound E. coli. The binding of FimH to mannosylated uroplakin is essential for E. coli to cause urinary tract infections. To monitor the mannose-binding activity of FimH in vitro, FimH binding to the enzyme horseradish peroxidase (HRP) is observed. HRP is a glycosylated protein containing mannose residues, and has previously been used to study mammalian mannose-binding receptors. Complexes of HRP and the lectin ConA, which binds α-D-mannosyl and α-D-glucosyl groups, have also been generated and studied.
(§2) HRP is then added, excess HRP is rinsed away, and the activity of bound HRP is detected.

[2] = Storage stability of FimCH; format: physicochemical; conditions: stored at −20° C., 0.3 mg/mL in 20 mM MES pH 5.9 or 20 mM trisodium citrate, pH 5.4
Experimental: For the HIC column used Butyl Sepharose 4FF (GE Healthcare 17-0980-01) in XK26 column. Buffer C: 20 mM MES/550 mM Ammonium Sulfate, pH 5.9; 8 ml/min for XK26/10 except loading, pre-equilibrate the column with 3 CV of Buffer A (as above), equilibrate the column with 6 CV of Buffer C, load Pooled FimCH sample at 5 ml/min XK26/10 column, wash the column with 6 CV of Buffer C, elute the column with a linear 4 CV gradient from 0-100% Buffer A with fraction collection. FimCH is formulated in the concentration of 0.3 mg/mL in 20 mM MES pH 5.9 or 20 mM trisodium citrate, pH 5.4. It is then aseptically filtered through a 0.2 μm sterile filter. FimCH is stable and can be stored at −20° C. for about at least 2 years.

FimH [3] = molecular target: FimH (Escherichia coli, UniProt P08191); assay: biochemical; conditions: concentration at which 50% inhibition of HRP binding to FimH is observed, inhibitor added in the HRP binding step
Chain of FimH (Escherichia coli, UniProt P08191) (P08191 22-300 P197R/T222H, one chain of several): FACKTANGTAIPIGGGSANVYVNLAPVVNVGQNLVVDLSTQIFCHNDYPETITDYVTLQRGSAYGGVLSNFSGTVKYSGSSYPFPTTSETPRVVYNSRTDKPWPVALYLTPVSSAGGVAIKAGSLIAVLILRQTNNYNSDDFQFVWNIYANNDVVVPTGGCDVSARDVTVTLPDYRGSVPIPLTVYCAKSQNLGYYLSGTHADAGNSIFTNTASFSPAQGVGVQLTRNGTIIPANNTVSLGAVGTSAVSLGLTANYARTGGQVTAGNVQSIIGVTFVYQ
Experimental: as §1, §2

[4] = molecular target: T1, horseradish peroxidase (HRP) (UniProt P00433 31-338); assay: in vitro potency assay; inferred from the lack of HRP signal with the Q133K FimH-FimC complex
T1 sequence: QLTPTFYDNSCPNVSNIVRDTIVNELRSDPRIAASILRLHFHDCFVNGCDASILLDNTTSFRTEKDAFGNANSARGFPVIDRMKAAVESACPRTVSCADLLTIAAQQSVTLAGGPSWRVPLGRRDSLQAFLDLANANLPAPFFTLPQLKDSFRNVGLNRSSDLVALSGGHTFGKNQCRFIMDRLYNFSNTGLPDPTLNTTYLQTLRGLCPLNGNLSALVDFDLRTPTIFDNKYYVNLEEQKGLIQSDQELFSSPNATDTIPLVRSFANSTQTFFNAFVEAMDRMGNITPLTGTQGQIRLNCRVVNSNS

Chain of FimH (Escherichia coli, UniProt P08191, P197R/T222H) (P08191 22-300 P197R/T222H, one chain of several): as the sequence (P08191 22-300 P197R/T222H, one chain of several) above

FimCH: non-covalent complex of FimC and FimH recombinant proteins, approximately 51,700 Daltons
HRP binding (mannose-binding activity) (FimH [1]; captured by anti-FimH antisera on ELISA plate): dose-dependent
time stable on storage [2]: at least 2 years

CO[C@H]1O[C@H](CO)[C@@H](O)[C@H](O)[C@@H]1O [MDMP, methyl-α-D-mannopyranoside]
IC50 (FimH [3]): ~5.15 µM and ~5.1 µM
fold higher 50% inhibition concentration than UFMP (FimH [1]; MDMP versus UFMP): approximately 100 fold

B1: FimC (other)
chain: GVALGATRVIYPAGQKQVQLAVTNNDENSTYLIQSWVENADGVKDGRFIVTPPLFAMKGKKENTLRILDATNNQLPQDRESLFWMNVKAIPSMDKSKLTENTLQLAIISRIKLYYRPAKLALPPDQAAEKLRFRRSANSLTLINPTPYYLTVTELNAGTRVLENALVPPMGESAVKLPSDAGSNITYRTINDYGALTPKMTGVME
notes: also called FimC protein
binding result [4]: no binding

— patent publication US20150086592A1, “COMPOSITIONS OF VACCINES AND ADJUVANTS AND METHODS FOR THE TREATMENT OF URINARY TRACT INFECTIONS” (Sequoia Sciences, Inc, priority 2013, published 2015)
